Here are results for one protein from PMC11513889.

A word on the Km: it is the substrate concentration at which the rate is half of its maximum.

Substrate in the data set: NC(=O)NO
Description: purified protein. The following applies: 1 mM NADH, NB5R3, CYB5B, 20 mM MES pH 6.0, 37 °C.

B1: mARC1 (Homo sapiens) (protein)
chain: GAAGSSALARFVLLAQSRPGWLGVAALGLTAVALGAVAWRRAWPTRRRRLLQQVGTVAQLWIYPVKSCKGVPVSEAECTAMGLRSGNLRDRFWLVINQEGNMVTARQEPRLVLISLTCDGDTLTLSAAYTKDLLLPIKTPTTNAVHKCRVHGLEIEGRDCGEATAQWITSFLKSQPYRLVHFEPHMRPRRPHQIADLFRPKDQIAYSDTSPFLILSEASLADLNSRLEKKVKATNFRPNIVISGCDVYAEDSWDELLIGDVELKRVMACSRCILTTVDPDTGVMSRKEPLETLKSYRQCDPSERKLYGKSPLFGQYFVLENPGTIKVGDPVYLLGQ
For B1, the Km is 7 mM.
